Experimental data reported in the supplement of paper PMC10567573.

B1: EPB41L3 (parent)
chain: SDYISEFRFAPNHTKELEDKVIEL

Variants of: B1
Test: protein stability index of a GFP-peptide fusion (GPS, HEK-293T) (PSI 1-6); higher = more stable
Conditions: c terminus: a fixed tail appended
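Further: lentivirally expressed fusions sorted by FACS into six bins by GFP to DsRed ratio, PSI derived from sequencing read proportions per bin multiplied by bin number.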

Variant	protein stability index
SDYISEFRFAPNHTKELHDKVIEL	2.77
SDYISEFRFAPNHTKELDDKVIEL	1.49
SDYISEFRFAPNHTKELIDKVIEL	2.19
SDYISEFRFAPNHTKELWDKVIEL	1.56
SDYISEFRFAPNHTKELQDKVIEL	2.42
SDYISEFRFAPNHTKELYDKVIEL	1.77
SDYISEFRFAPNHTKELNDKVIEL	1.81
SDYISEFRFAPNHTKELVDKVIEL	2.07
SDYISEFRFAPNHTKELADKVIEL	2.05
SDYISEFRFAPNHTKELKDKVIEL	2.08
SDYISEFRFAPNHTKELFDKVIEL	1.8
SDYISEFRFAPNHTKELSDKVIEL	2.32
SDYISEFRFAPNHTKELMDKVIEL	1.8
SDYISEFRFAPNHTKELTDKVIEL	1.73
SDYISEFRFAPNHTKELCDKVIEL	1.44
SDYISEFRFAPNHTKELGDKVIEL	2.53
SDYISEFRFAPNHTKELPDKVIEL	1.47
SDYISEFRFAPNHTKELLDKVIEL	1.77
SDYISEFRFAPNHTKELRDKVIEL	2.34
SDYISEFRFAPNHTSELEDKVIEL	2.07
SDYISEFRFAPNHTCELEDKVIEL	2.25
SDYISEFRFAPNHTIELEDKVIEL	1.9
SDYISEFRFAPNHTEELEDKVIEL	3.46
SDYISEFRFAPNHTGELEDKVIEL	2.1

Variant	protein stability index
SDYISEFRFAPNHTRELEDKVIEL	1.74
SDYISEFRFAPNHTMELEDKVIEL	2.25
SDYISEFRFAPNHTFELEDKVIEL	2.15
SDYISEFRFAPNHTHELEDKVIEL	1.97
SDYISEFRFAPNHTVELEDKVIEL	2.04
SDYISEFRFAPNHTTELEDKVIEL	2.1
SDYISEFRFAPNHTPELEDKVIEL	2.29
SDYISEFRFAPNHTDELEDKVIEL	2.49
SDYISEFRFAPNHTYELEDKVIEL	1.63
SDYISEFRFAPNHTLELEDKVIEL	1.75
SDYISEFRFAPNHTAELEDKVIEL	1.9
SDYISEFRFAPNHTNELEDKVIEL	2.12
SDYISEFRFAPNHTWELEDKVIEL	1.77
SDYISEFRFAPNHTQELEDKVIEL	2.34
SDYISEFRFAPNHTKLLEDKVIEL	2.37
SDYISEFRFAPNHTKALEDKVIEL	2.56
SDYISEFRFAPNHTKWLEDKVIEL	2.07
SDYISEFRFAPNHTKKLEDKVIEL	1.77
SDYISEFRFAPNHTKVLEDKVIEL	1.89
SDYISEFRFAPNHTKPLEDKVIEL	1.57
SDYISEFRFAPNHTKYLEDKVIEL	2.56
SDYISEFRFAPNHTKDLEDKVIEL	1.82
SDYISEFRFAPNHTKTLEDKVIEL	1.54
SDYISEFRFAPNHTKNLEDKVIEL	1.76

Variant	protein stability index
SDYISEFRFAPNHTKMLEDKVIEL	3.24
SDYISEFRFAPNHTKFLEDKVIEL	2.81
SDYISEFRFAPNHTKILEDKVIEL	2.08
SDYISEFRFAPNHTKRLEDKVIEL	2.66
SDYISEFRFAPNHTKCLEDKVIEL	2.17
SDYISEFRFAPNHTKGLEDKVIEL	1.81
SDYISEFRFAPNHTKSLEDKVIEL	2.42
SDYISEFRFAPNHTKHLEDKVIEL	2.65
SDYISEFRFAPNHTKQLEDKVIEL	2.3
SDYISEFRFAPNGTKELEDKVIEL	2.16
SDYISEFRFAPNVTKELEDKVIEL	1.59
SDYISEFRFAPNLTKELEDKVIEL	2.31
SDYISEFRFAPNTTKELEDKVIEL	2.08
SDYISEFRFAPNWTKELEDKVIEL	1.72
SDYISEFRFAPNCTKELEDKVIEL	2.19
SDYISEFRFAPNSTKELEDKVIEL	2.06
SDYISEFRFAPNQTKELEDKVIEL	2.46
SDYISEFRFAPNNTKELEDKVIEL	2.36
SDYISEFRFAPNDTKELEDKVIEL	3.71
SDYISEFRFAPNATKELEDKVIEL	2.84
SDYISEFRFAPNRTKELEDKVIEL	1.94
SDYISEFRFAPNFTKELEDKVIEL	1.92
SDYISEFRFAPNITKELEDKVIEL	2.28
SDYISEFRFAPNPTKELEDKVIEL	1.99

Variant	protein stability index
SDYISEFRFAPNKTKELEDKVIEL	2.29
SDYISEFRFAPNYTKELEDKVIEL	2.35
SDYISEFRFAPNETKELEDKVIEL	3.3
SDYISEFRFAPNMTKELEDKVIEL	2.06
SDYISEFRFAPNHTKEEEDKVIEL	2.32
SDYISEFRFAPNHTKEREDKVIEL	1.27
SDYISEFRFAPNHTKEHEDKVIEL	1.84
SDYISEFRFAPNHTKEAEDKVIEL	1.87
SDYISEFRFAPNHTKEWEDKVIEL	1.77
SDYISEFRFAPNHTKEYEDKVIEL	2.59
SDYISEFRFAPNHTKEGEDKVIEL	1.97
SDYISEFRFAPNHTKECEDKVIEL	2.05
SDYISEFRFAPNHTKETEDKVIEL	1.98
SDYISEFRFAPNHTKEIEDKVIEL	2.37
SDYISEFRFAPNHTKEKEDKVIEL	2.07
SDYISEFRFAPNHTKEFEDKVIEL	2.86
SDYISEFRFAPNHTKEMEDKVIEL	2.47
SDYISEFRFAPNHTKENEDKVIEL	2.17
SDYISEFRFAPNHTKEQEDKVIEL	2.18
SDYISEFRFAPNHTKEDEDKVIEL	2.51
SDYISEFRFAPNHTKEVEDKVIEL	2.68
SDYISEFRFAPNHTKEPEDKVIEL	1.96
